This assay concerns the target XRCC4/Ligase IV (XL) (UniProt Q13426).

XRCC4-like factor (XLF, also known as Cernunnos), sequence (Q9H9Q4 whole entry): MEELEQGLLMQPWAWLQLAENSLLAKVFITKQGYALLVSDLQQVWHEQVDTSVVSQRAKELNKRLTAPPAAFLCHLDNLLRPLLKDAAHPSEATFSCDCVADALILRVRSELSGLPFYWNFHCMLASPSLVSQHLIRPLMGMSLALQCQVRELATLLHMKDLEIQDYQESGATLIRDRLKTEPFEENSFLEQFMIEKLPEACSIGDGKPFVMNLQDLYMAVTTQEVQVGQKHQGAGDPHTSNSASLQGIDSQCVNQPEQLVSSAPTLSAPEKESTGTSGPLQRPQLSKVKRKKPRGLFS
XRCC4/Ligase IV (XL), sequence (Q13426 whole entry, chain 1 of 2): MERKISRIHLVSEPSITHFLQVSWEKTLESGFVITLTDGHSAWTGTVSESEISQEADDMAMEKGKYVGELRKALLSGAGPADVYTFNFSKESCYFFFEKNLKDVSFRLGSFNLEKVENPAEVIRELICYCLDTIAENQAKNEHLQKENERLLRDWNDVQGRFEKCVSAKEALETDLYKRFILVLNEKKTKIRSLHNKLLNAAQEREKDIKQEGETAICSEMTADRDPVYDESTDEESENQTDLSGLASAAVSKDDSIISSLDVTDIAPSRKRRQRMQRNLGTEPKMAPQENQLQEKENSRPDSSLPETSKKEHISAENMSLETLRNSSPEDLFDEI
XRCC4/Ligase IV (XL), sequence (P49917 whole entry, chain 2 of 2, further chain): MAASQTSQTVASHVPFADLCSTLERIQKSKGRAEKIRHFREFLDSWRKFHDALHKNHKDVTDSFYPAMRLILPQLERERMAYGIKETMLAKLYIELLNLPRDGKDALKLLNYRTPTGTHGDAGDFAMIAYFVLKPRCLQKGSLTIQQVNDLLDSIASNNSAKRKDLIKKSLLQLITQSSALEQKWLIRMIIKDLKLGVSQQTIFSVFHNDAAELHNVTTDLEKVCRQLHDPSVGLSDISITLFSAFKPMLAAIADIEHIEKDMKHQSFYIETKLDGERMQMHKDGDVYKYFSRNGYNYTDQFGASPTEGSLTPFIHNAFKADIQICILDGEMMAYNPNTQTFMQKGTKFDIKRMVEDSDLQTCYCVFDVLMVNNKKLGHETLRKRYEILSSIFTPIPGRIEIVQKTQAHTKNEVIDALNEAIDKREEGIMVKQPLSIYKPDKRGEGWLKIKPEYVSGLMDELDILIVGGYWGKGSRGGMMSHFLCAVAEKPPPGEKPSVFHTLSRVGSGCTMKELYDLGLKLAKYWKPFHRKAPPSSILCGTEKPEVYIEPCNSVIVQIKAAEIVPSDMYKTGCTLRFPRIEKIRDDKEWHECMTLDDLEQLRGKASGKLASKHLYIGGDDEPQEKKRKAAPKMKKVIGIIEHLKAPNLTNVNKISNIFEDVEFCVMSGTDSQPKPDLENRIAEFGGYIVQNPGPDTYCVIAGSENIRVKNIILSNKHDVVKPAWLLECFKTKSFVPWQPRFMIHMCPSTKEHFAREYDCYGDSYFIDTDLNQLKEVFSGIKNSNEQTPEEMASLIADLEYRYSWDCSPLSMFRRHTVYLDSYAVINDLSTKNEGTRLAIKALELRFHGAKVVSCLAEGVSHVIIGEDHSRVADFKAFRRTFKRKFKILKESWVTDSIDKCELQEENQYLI

On to “XRCC4-like factor (XLF, also known as Cernunnos) (from UniProt Q9H9Q4 1-299) (natural protein)”, for which the stoichiometry N (XL to XLF molar ratio) came to 1.

(Values after paper PMC3689955.)
